Laboratory results published in patent US20250340613A1 (JOINT STOCK COMPANY BIOCAD, published 2025).

T1: hCD38-Avi, ADP-ribosyl cyclase/cyclic ADP-ribose hydrolase 1 (Homo sapiens) aa 43-300 (Homo sapiens, UniProt P28907 43-300)
T1 construct: range 43-300; not shown: Avi tag as the name implies
T1 sequence (looked up): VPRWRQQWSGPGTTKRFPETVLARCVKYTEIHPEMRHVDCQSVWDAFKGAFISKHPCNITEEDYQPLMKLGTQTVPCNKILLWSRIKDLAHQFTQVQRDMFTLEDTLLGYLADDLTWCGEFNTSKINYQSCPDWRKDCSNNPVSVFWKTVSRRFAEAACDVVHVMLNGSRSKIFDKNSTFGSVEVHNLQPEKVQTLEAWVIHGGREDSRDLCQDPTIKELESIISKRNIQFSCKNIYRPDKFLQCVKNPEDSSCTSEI

T2: hAng2_H6F, Angiopoietin-2 (Homo sapiens) aa 19-496 (Homo sapiens, UniProt O15123 19-496)
T2 construct: also called hAng-H6F; not shown: His and FLAG tags implied by the name 'H6F'
T2 sequence: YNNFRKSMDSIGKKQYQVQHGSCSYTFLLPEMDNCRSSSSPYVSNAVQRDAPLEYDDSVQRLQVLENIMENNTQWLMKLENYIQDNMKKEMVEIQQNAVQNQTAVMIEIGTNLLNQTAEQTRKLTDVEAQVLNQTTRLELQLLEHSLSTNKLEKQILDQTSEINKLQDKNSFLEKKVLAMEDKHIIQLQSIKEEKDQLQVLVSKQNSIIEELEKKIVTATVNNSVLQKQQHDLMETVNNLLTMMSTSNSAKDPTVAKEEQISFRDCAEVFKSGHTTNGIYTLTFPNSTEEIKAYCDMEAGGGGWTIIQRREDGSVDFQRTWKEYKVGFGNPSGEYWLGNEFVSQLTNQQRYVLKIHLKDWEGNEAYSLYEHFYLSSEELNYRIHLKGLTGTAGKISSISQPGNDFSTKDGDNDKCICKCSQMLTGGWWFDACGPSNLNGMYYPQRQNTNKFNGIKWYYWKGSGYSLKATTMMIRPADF

T3: C-Avi-His-TEVs-HSA_hBCMA, Tumor necrosis factor receptor superfamily member 17 (Homo sapiens) aa 1-54 (Homo sapiens, UniProt Q02223 1-54)
T3 construct: range 1-54; not shown: Avi, His, TEV site and HSA parts as the name implies
T3 sequence (looked up): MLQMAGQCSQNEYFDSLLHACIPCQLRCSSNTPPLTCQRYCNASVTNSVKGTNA

T4: hisOX40, Tumor necrosis factor receptor superfamily member 4 (Homo sapiens) aa 26-210 (Homo sapiens, UniProt P43489 26-210)
T4 construct: range 26-210; The tag is put first only because the name begins with His; not shown: His tag as the name implies
T4 sequence (looked up): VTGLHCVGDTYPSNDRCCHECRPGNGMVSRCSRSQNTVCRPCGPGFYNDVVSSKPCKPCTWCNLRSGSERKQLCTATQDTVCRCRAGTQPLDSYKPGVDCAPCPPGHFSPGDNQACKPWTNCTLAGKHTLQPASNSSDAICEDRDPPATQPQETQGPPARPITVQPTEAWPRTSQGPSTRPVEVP

T5: hIL4R-His, Interleukin-4 receptor subunit alpha (Homo sapiens) aa 27-227 (Homo sapiens, UniProt P24394 27-227)
T5 construct: range 27-227; not shown: His tag as the name implies
T5 sequence (looked up): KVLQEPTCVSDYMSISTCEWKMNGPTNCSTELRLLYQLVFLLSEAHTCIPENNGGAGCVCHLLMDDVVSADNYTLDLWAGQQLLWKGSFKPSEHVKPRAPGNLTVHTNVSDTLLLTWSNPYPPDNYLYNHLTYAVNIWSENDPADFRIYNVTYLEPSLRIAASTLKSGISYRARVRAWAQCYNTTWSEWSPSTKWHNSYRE

B1: 02-005, bivalent bispecific chimeric antibody that specifically binds to PD1 and CD20 (bispecific antibody, human IgG1, kappa, L234A L235A)
heavy 1: EVQLVESGGGLVQPGGSLRLSCAASGYTFTSYNMHWVRQAPGKGLEWVGAIYPGNGDTSYNQKFKGRFTISVDKSKNTLYLQMNSLRAEDTAVYYCARVVYYSNSYWYFDVWGQGTLVTVSSASTKGPSVFPLAPSSKSTSGGTAALGCLVKDYFPEPVTVSWNSGALTSGVHTFPAVLQSSGLYSLSSVVTVPSSSLGTQTYICNVNHKPSNTKVDKRVEPKSCDKTHTCPPCPAPEAAGGPSVFLFPPKPKDTLYITREPEVTCVVVDVSHEDPEVKFNWYVDGVEVHNAKTKPREEQYNSTYRVVSVLTVLHQDWLNGKEYKCKVSNKALPAPIEKTISKAKGQPREPQVCTLPPSRDELTKNQVSLSCAVKGFYPSDIAVEWESNGQPENNYKTTPPVLDSDGSFFLVSKLTVDKSRWQQGNVFSCSVMHEALHNHYTQKSLSLSPGK
light 1: DIQMTQSPSSLSASVGDRVTITCRASSSVSYMHWYQQKPGKAPKPLIYAPSNLASGVPSRFSGSGSGTDFTLTISSLQPEDFATYYCQQWSFNPPTFGQGTKVEIKRTVAAPSVFIFPPSDEQLKSGTASVVCLLNNFYPREAKVQWKVDNALQSGNSQESVTEQDSKDSTYSLSSTLTLSKADYEKHKVYACEVTHQGLSSPVTKSFNRGEC
heavy 2: not shown
light 2: QPVLTQPLSVSVALGQTARITCGGNNIGSKNVHWYQQKPGQAPVLVIYRDSNRPSGIPERFSGSNSGNTATLTISRAQAGDEADYYCQVWDSSTAVFGTGTKLTVLQQRQVKPEAWLSSGPSPGPGRLQLVCHVSGFYPKPVWVMWMRGEQEQQGTQLGDILPNANWTWYLRATLDVADGEAAGLSCRVKHSSLEGQDIILYWRGSC
notes: Produced in CHO cells
B2: 02-004, bivalent bispecific chimeric antibody that specifically binds to PD1 and CD20 (bispecific antibody, human IgG1, kappa, L234A L235A)
heavy 1: QVQLVQSGGGLVQPGGSLRLSCAASGFTFSSYWMYWVRQVPGKGLEWVSAIDTGGGRTYYADSVKGRFAISRVNAKNTMYLQMNSLRAEDTAVYYCARDEGGGTGWGVLKDWPYGLDAWGQGTLVTVSSASTKGPSVFPLAPSSKSTSGGTAALGCLVKDYFPEPVTVSWNSGALTSGVHTFPAVLQSSGLYSLSSVVTVPSSSLGTQTYICNVNHKPSNTKVDKRVEPKSCDKTHTCPPCPAPEAAGGPSVFLFPPKPKDTLYITREPEVTCVVVDVSHEDPEVKFNWYVDGVEVHNAKTKPREEQYNSTYRVVSVLTVLHQDWLNGKEYKCKVSNKALPAPIEKTISKAKGQPREPQVCTLPPSRDELTKNQVSLSCAVKGFYPSDIAVEWESNGQPENNYKTTPPVLDSDGSFFLVSKLTVDKSRWQQGNVFSCSVMHEALHNHYTQKSLSLSPGK
light 1: QPVLTQPLSVSVALGQTARITCGGNNIGSKNVHWYQQKPGQAPVLVIYRDSNRPSGIPERFSGSNSGNTATLTISRAQAGDEADYYCQVWDSSTAVFGTGTKLTVLQRTVAAPSVFIFPPSDEQLKSGTASVVCLLNNFYPREAKVQWKVDNALQSGNSQESVTEQDSKDSTYSLSSTLTLSKADYEKHKVYACEVTHQGLSSPVTKSFNRGEC
heavy 2: not shown
light 2: DIQMTQSPSSLSASVGDRVTITCRASSSVSYMHWYQQKPGKAPKPLIYAPSNLASGVPSRFSGSGSGTDFTLTISSLQPEDFATYYCQQWSFNPPTFGQGTKVEIKQRQVKPEAWLSSGPSPGPGRLQLVCHVSGFYPKPVWVMWMRGEQEQQGTQLGDILPNANWTWYLRATLDVADGEAAGLSCRVKHSSLEGQDIILYWRGSC
notes: Produced in CHO cells
B3: 02-009, bivalent bispecific chimeric antibody that specifically binds to CD20 and CSF1R (bispecific antibody, human IgG1, kappa, L234A L235A)
heavy 1: QVQLVESGGGLVRPGGSLRLSCAASEFTFDDYAMSWVRQAPGKGLEWVSAISWNGGSTNYADSVKGRFTISRDNAKNSLYLQMNSLRAEDTALYYCASTVEVAHRRLYKYLEVWGQGTLVTVSSASTKGPSVFPLAPSSKSTSGGTAALGCLVKDYFPEPVTVSWNSGALTSGVHTFPAVLQSSGLYSLSSVVTVPSSSLGTQTYICNVNHKPSNTKVDKRVEPKSCDKTHTCPPCPAPEAAGGPSVFLFPPKPKDTLYITREPEVTCVVVDVSHEDPEVKFNWYVDGVEVHNAKTKPREEQYNSTYRVVSVLTVLHQDWLNGKEYKCKVSNKALPAPIEKTISKAKGQPREPQVCTLPPSRDELTKNQVSLSCAVKGFYPSDIAVEWESNGQPENNYKTTPPVLDSDGSFFLVSKLTVDKSRWQQGNVFSCSVMHEALHNHYTQKSLSLSPGK
light 1: QAGLTQPPSVSVAPGQTARITCGGNNIGSKSVHWYQQKPGQAPVLVVYGDSDRPSGIPERFSGSNSGNTATLTISRVEAGDEADYYCQVWDISSDHVVFGGGTQLTVLRTVAAPSVFIFPPSDEQLKSGTASVVCLLNNFYPREAKVQWKVDNALQSGNSQESVTEQDSKDSTYSLSSTLTLSKADYEKHKVYACEVTHQGLSSPVTKSFNRGEC
heavy 2: not shown
light 2: B2 light 2
notes: Produced in CHO cells

Molecular target: T6, Her3-H6F, Receptor tyrosine-protein kinase erbB-3 (Homo sapiens) aa 21-643 (Homo sapiens, UniProt P21860 21-643)
T6 construct: not shown: His and FLAG tags implied by the name 'H6F'
Test: BLI Octet RED 384; antibody on ProA sensor, antigen 30 ug/ml (420.8 nM); response at end of association
Protocol: (§1) Experimental study of nonspecific binding of bispecific chimeric antibodies to non-target antigens was performed on Forte Bio Octert RED 384. Protein A (ProA) biosensors (ForteBio) were immersed into a solution containing antibodies at a concentration of 10 μg/ml for 150 seconds to immobilize same. The baseline was recorded in a 1×KB solution for 30 seconds. The antibody-loaded sensors were then immersed into wells containing non-target antigens at a concentration of 30 μg/ml for 150 seconds. Complex dissociation was then recorded for 30 seconds.
(§2) The reference sensors went through all the steps as the sensors used to record analyte sensograms did, with the exception of the association step—at the association step, the sensors were immersed in a kinetic buffer solution without analyte (the reference sensor signals were measured in parallel with the recording of the main sensograms). The reference signal was subtracted from the signal received on sensors interacting with the analyte during the processing of sensograms.
(§3) Sensograms were processed using ForteBio Octet Data Analysisn 9.0 software. To report no non-specific interaction, the recorded signal level was checked at the end of the association step (the response parameter).

T6 sequence (P21860 21-643 limits assumed): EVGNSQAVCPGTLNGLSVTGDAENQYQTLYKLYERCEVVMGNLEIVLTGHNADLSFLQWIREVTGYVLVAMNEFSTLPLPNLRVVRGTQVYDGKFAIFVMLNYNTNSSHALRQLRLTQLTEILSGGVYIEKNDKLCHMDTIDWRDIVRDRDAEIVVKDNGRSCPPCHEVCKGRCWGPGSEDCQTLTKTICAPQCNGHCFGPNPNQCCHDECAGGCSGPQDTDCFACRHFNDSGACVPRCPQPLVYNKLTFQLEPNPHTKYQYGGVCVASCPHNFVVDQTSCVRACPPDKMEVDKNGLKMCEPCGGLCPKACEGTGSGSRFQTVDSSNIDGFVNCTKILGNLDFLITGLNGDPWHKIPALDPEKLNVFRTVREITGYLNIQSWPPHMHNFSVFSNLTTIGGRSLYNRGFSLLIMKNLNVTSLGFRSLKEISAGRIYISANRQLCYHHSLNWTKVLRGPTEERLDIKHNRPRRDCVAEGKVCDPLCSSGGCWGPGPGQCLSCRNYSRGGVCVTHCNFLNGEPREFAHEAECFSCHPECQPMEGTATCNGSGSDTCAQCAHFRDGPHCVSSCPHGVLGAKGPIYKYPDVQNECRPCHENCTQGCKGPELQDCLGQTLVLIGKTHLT

| Signal level (nm) | Binder |
| --- | --- |
| -0.0128 nm | B1 |
| 0.0217 nm | B2 |
| -0.0161 nm | B3 |

Molecular target: T1, hCD38-Avi, ADP-ribosyl cyclase/cyclic …
Test: BLI Octet RED 384; antibody on ProA sensor, antigen 30 ug/ml (854.7 nM); response at end of association
Protocol: as §1, §2, §3

| Signal level (nm) | Binder |
| --- | --- |
| 0.0072 nm | B1 |
| 0.004 nm | B2 |
| -0.0089 nm | B3 |

Molecular target: T2, hAng2_H6F, Angiopoietin-2 (Homo …)
Test: BLI Octet RED 384; antibody on ProA sensor, antigen 30 ug/ml (510.2 nM); response at end of association
Protocol: as §1, §2, §3

| Signal level (nm) | Binder |
| --- | --- |
| -0.0194 nm | B1 |
| 0.0212 nm | B2 |
| -0.0114 nm | B3 |

Molecular target: T7, extracellular domain of the human CSF1R protein (hCSF1R_His) (Homo sapiens, UniProt P07333 20-512)
T7 construct: range 20-512; Molecular weight 57.4 kDa; made in CHO cells; also called hCSF1_His; not shown: C-terminal His and FLAG tags
Test: BLI Octet RED 384; antibody on ProA sensor, antigen 30 ug/ml (522.5 nM); response at end of association
Protocol: as §1, §2, §3

T7 sequence (P07333 20-512 limits assumed): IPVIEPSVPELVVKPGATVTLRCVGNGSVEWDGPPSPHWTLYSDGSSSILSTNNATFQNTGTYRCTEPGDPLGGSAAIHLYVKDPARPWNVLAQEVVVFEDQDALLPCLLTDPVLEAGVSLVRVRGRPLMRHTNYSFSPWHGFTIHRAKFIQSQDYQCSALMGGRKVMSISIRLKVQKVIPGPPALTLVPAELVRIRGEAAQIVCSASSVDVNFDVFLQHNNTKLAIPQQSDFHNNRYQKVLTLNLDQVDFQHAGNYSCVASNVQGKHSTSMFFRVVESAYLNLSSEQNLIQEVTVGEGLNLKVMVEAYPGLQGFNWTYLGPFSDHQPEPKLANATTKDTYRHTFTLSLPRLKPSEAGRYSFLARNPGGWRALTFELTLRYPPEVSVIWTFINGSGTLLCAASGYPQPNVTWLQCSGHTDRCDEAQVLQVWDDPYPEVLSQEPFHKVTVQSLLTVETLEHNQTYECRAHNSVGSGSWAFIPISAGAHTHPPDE

| Signal level (nm) | Binder |
| --- | --- |
| 0.0034 nm | B1 |
| 0.0103 nm | B2 |
| 0.564 nm | B3 |

Molecular target: T3, C-Avi-His-TEVs-HSA_hBCMA, Tumor …
Test: BLI Octet RED 384; antibody on ProA sensor, antigen 30 ug/ml (391.2 nM); response at end of association
Protocol: as §1, §2, §3

| Binder | Signal level (nm) |
| --- | --- |
| B1 | 0.0021 nm |
| B2 | 0.0108 nm |
| B3 | -0.0154 nm |

Molecular target: T4, hisOX40, Tumor necrosis factor receptor …
Test: BLI Octet RED 384; antibody on ProA sensor, antigen 30 ug/ml (1310 nM); response at end of association
Protocol: as §1, §2, §3

| Binder | Signal level (nm) |
| --- | --- |
| B1 | -0.0169 nm |
| B2 | 0.0103 nm |
| B3 | -0.0158 nm |

Molecular target: T5, hIL4R-His, Interleukin-4 receptor …
Test: BLI Octet RED 384; antibody on ProA sensor, antigen 30 ug/ml (1154 nM); response at end of association
Protocol: as §1, §2, §3

| Signal level (nm) | Binder |
| --- | --- |
| -0.0057 nm | B1 |
| 0.0102 nm | B2 |
| -0.0036 nm | B3 |

Molecular target: T8, extracellular domain of the human PD-1 protein (hPD1ex-H6F) (Homo sapiens, UniProt Q15116 21-170)
T8 construct: Molecular weight 20.6 kDa; made in CHO cells; also called hPDlex-H6F; not shown: C-terminal His and FLAG tags
Test: BLI Octet RED 384; antibody on ProA sensor, antigen 30 ug/ml (1456 nM); response at end of association
Protocol: as §1, §2, §3

T8 sequence (Q15116 21-170 limits assumed, form in doubt): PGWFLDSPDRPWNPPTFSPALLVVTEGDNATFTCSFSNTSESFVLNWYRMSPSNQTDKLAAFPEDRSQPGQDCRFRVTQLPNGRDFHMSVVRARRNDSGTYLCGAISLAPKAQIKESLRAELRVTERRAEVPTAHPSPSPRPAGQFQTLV

| Signal level (nm) | Binder |
| --- | --- |
| 0.139 nm | B1 |
| 0.35 nm | B2 |
| -0.0059 nm | B3 |
